Experimental data from patent US20240279618A1, “RECEPTOR TYROSINE KINASE AGONIST, COMPOSITION FOR CELL CULTURE MEDIUM, AND […] MAINTENANCE COMPOSITION” (SEKISUI CHEMICAL CO., LTD., priority 2021, published 2024).

B1: #1-L4-#1: dimer of VHH #1 with linker L4 (GSEGKSSGSGSESKST), SEQ ID NO: 23 (protein)
VHH: QLQLVESGGGSVQAGGSLRLSCAASRSLSRFNVWTWYRQAPVKQRELVASITKSGDTNYAESVKGRFIISRDDDKNTVYLQMNNLKSEDTGIYYCAGSYYSGSYLYPSPGGFSVWGQGTQVTVSSGSEGKSSGSGSESKSTQLQLVESGGGSVQAGGSLRLSCAASRSLSRFNVWTWYRQAPVKQRELVASITKSGDTNYAESVKGRFIISRDDDKNTVYLQMNNLKSEDTGIYYCAGSYYSGSYLYPSPGGFSVWGQGTQVTVSS
modifications: #1-L4-#1

Assays:
[1] = system: human bone marrow-derived MSC; assay: MSC culture: evaluation of cell growth and morphology; format: cell-based; parameters: key to P3 Growth rate / P4 Growth rate / P5 Growth rate: cells per well at passage divided by cells at seeding; settings: for P2 Count (3-well) / P2 Growth rate / P3 Count (3-well) / P3 Growth rate / P4 Count (3-well) / P4 Growth rate / P5 Count (3-well) / P5 Growth rate / cumulative number of cells (average value), P1 / cumulative number of cells (average value), P2 / cumulative number of cells (average value), P3 / cumulative number of cells (average value), P4 / cumulative number of cells (average value), P5 / P1 Count (2-well): MSC, 20 ng/mL; for cumulative number of cells (average value), P1: culture day 5; for cumulative number of cells (average value), P2: culture day 10; for cumulative number of cells (average value), P3: culture day 15; for cumulative number of cells (average value), P4: culture day 20; for cumulative number of cells (average value), P5: culture day 25; for growth performance of MSC (cumulative number of cells): regardless of the FBS concentration (10% or 20%); for morphology of MSC: 4 passages, Day 1
Procedure: 10 mL of a used portion of D-MEM medium (Low Glucose, Glutamine) (Fujifilm Wako Pure Chemical Corporation, C/N: 041-29775) was added to a 15 mL PP tube, and warmed in a thermostatic water tank (set at 37° C.). A human bone marrow-derived MSC (Stemcell Technologies, C/N: 70022) stock tube preserved in a liquid nitrogen gas phase was taken out from a liquid nitrogen container and thawed in a thermostatic water tank (set at 37° C.). Thereafter, the cells were rapidly moved with a pipette into the tube (including 10 mL of the medium) that had been heated to 37° C. in a clean bench, and mixed by pipetting. The tube was centrifuged (300× g, 5 minutes) and the supernatant was removed with an aspirator.
An appropriate amount of D-MEM that had been warmed to room temperature was added to a cell pellet and mixed, and then the number of cells was evaluated with a cell counter. An appropriate amount of the cell suspension was taken into a 15 mL PP tube and centrifuged (300× g, 5 minutes). The supernatant was removed, an appropriate amount of D-MEM (containing 10% or 20% of FBS (Thermo Fisher Scientific Inc., 16140071); the stock was preserved under refrigeration and used within 2 weeks) was added to a cell pellet to adjust a cell suspension (1).
The number of cells was evaluated again with a cell counter and the cells were appropriately diluted with each of the media. Next, a stock of basic FGF or VHH was added to the cell suspension (1), so that each of the final concentrations was 1 ng/ml or ng/mL. Seeding was performed onto a CellBIND 6-well plate (Coming, C/N: 3335) at a density of 3-5×10^4/well, and after 2 to 4 days, medium exchange was performed using D-MEM (containing 10% FBS or 20% FBS).
The cells were observed under a microscope, and basically, passage was carried out after 5 days from seeding. In advance, the used D-MEM (0% FBS, 10% FBS, or 20% FBS) was warmed in advance in a thermostatic water tank (set at 37° C.). After washing the cells with D-PBS, 500 μL of TrypLE Express was added thereto and the cells were left to stand in a CO2 incubator. After 5 to 10 minutes, the culture container was removed from the CO2 incubator, and a change in cell morphology was confirmed under a microscope. Thereafter, 1 mL of D-MEM was added to each well, and the cells were released by pipetting, suspended, and then recovered in a 15 mL PP tube.
The tube was centrifuged (300× g, 5 minutes) and the supernatant was removed with an aspirator. An appropriate amount of a D-MEM medium (containing 10% FBS or 20% FBS) was added to the cell pellet, and mixed by pipetting. A part of the cell suspension was collected and the number of cells was evaluated with a cell counter. After counting the […] in each well, the cell suspensions in the same group were collected in one tube and mixed together. The average value of individual wells was used to calculate the number of cells at the time of passage.
The cell suspension was appropriately diluted with D-MEM (10% FBS or 20% FBS). The cells were seeded on a new CellBIND 6-well plate at […] cells/well. Furthermore, one well was adjusted to 2 mL/well. After 2 to 4 days, medium exchange was performed with a medium at room temperature.
The average value of the counts of number of cells per well acquired during the passage was used to create a cell growth straight line. In addition, a value obtained by dividing the number of cells per well at the time of passage by the number of cells at the time of seeding was defined as a growth rate during that period, and the rate was used at the time of calculating a cumulative number of cells. In a case in which the number of cells per well at the time of initial seeding is defined as P(0) and the time of the N^th passage is defined as P(N), the cumulative number of cells at each passage is determined by the following calculation equation. […]

[2] = system: human bone marrow-derived MSC; assay: MSC: evaluation of bone differentiation induction (Alizarin Red); format: cell-based; settings: MSC after 3 passages with 20 ng/ml additive, 14 days induction
Procedure: A third passage was performed in a CellBIND® 24-well transparent multi-well plate, and then at a time of reaching 80% to 90% confluence, medium exchange was performed in MesenCult Stem Cell Osteogenic Differentiation Medium (PromoCell, C/N: C-28013) which is a medium for differentiation induction. Furthermore, for the cells as a negative control, D-MEM (10% FBS or 20% FBS) which is a culture medium was used for the medium exchange. The medium exchange was carried out every 2 to 4 days.
After 14 days from seeding, a 4% paraformaldehyde/phosphate buffer solution was added thereto at 500 μL/well, and the cells were left to stand for 2 hours or longer. After the immobilization, purified water was added thereto at 500 μL/well. 500 μL of an Alizarin Red solution (PG Research Co., Ltd., ARD-SET) was added to each well, which was left to stand at room temperature for 30 minutes. The Alizarin Red solution was removed, and washing was performed three times or more with purified water until the washing water became transparent. The water was completely removed, and the coating film was dried, and observed with a microscope to acquire an image. 500 μL of a calcifide nodule dissolution solution (PG Research Co., Ltd., ARD-SET) was added into the well and distributed for 10 minutes to elute the dye. 100 μL of the eluate was transferred to a 96-well plate and the absorbance at 450 nm was measured. […]

[3] = FBS 10%, cells at passage divided by cells at seeding
[4] = FBS 10%, number of cells (average value) at passage P1

Row | Molecule | P2 Count (3-well) ([1]; FBS 10%) | P2 Growth rate [1, 3] | P3 Count (3-well) ([1]; FBS 10%) | P3 Growth rate ([1]; FBS 10%) | P4 Count (3-well) ([1]; FBS 10%) | P4 Growth rate ([1]; FBS 10%) | P5 Count (3-well) ([1]; FBS 10%) | P5 Growth rate ([1]; FBS 10%) | cumulative number of cells (average value), P1 ([1]; FBS 10%) | cumulative number of cells (average value), P2 ([1]; FBS 10%) | cumulative number of cells (average value), P3 ([1]; FBS 10%) | cumulative number of cells (average value), P4 ([1]; FBS 10%) | cumulative number of cells (average value), P5 ([1]; FBS 10%) | P1 Count (2-well) [1, 4] | P1 Count (2-well) ([1]; FBS 20%, P1) | P2 Count (3-well) ([1]; FBS 20%) | P2 Growth rate ([1]; FBS 20%) | P3 Count (3-well) ([1]; FBS 20%) | P3 Growth rate ([1]; FBS 20%) | P4 Count (3-well) ([1]; FBS 20%) | also measured
1 | FGF2: fibroblast growth factor (basic), human, recombinant (154aa), positive control; SEQ ID NO: 58 [reference compound] | 3.6E+05 | 7.2 | 3.5E+05 | 7.0 | 3.0E+05 | 6.0 | 2.0E+05 | 3.9 | 6.8E+05 | 4.9E+06 | 3.4E+07 | 2.1E+08 | 8.1E+08 | 6.8E+05 | 1.2E+06 | 5.3E+05 | 10.7 | 6.6E+05 | 13.2 | 5.5E+05 | P4 Growth rate ([1]; FBS 20%): 10.9; P5 Count (3-well) ([1]; FBS 20%): 3.6E+05; P5 Growth rate ([1]; FBS 20%): 7.2; cumulative number of cells (average value), P1 ([1]; FBS 20%): 1.2E+06; cumulative number of cells (average value), P2 ([1]; FBS 20%): 1.3E+07; cumulative number of cells (average value), P3 ([1]; FBS 20%): 1.7E+08; cumulative number of cells (average value), P4 ([1]; FBS 20%): 1.8E+09; cumulative number of cells (average value), P5 ([1]; FBS 20%): 1.3E+10; growth performance of MSC (cumulative number of cells) [1]: almost the same growth performance; bone differentiation (Alizarin Red) [2]: Differentiation was similarly recognized
2 | B1 | 4.3E+05 | 8.5 | 3.7E+05 | 7.5 | 2.9E+05 | 5.8 | 2.2E+05 | 4.3 | 6.3E+05 | 5.4E+06 | 4.0E+07 | 2.3E+08 | 1.0E+09 | 6.3E+05 | 1.3E+06 | 8.4E+05 | 16.7 | 6.9E+05 | 13.7 | 4.9E+05 | morphology of MSC ([1]; 10% FBS, low concentration (1 ng/mL)): flattened morphology; morphology of MSC ([1]; 20% FBS): same morphology was exhibited regardless of the addition concentration; P4 Growth rate ([1]; FBS 20%): 9.7; P5 Count (3-well) ([1]; FBS 20%): 4.3E+05; P5 Growth rate ([1]; FBS 20%): 8.7; cumulative number of cells (average value), P1 ([1]; FBS 20%): 1.3E+06; cumulative number of cells (average value), P2 ([1]; FBS 20%): 2.1E+07; cumulative number of cells (average value), P3 ([1]; FBS 20%): 2.9E+08; cumulative number of cells (average value), P4 ([1]; FBS 20%): 2.8E+09; cumulative number of cells (average value), P5 ([1]; FBS 20%): 2.4E+10; growth performance of MSC (cumulative number of cells) [1]: almost the same growth performance; bone differentiation (Alizarin Red) [2]: Differentiation was similarly recognized
